Measured values: article PMC2655719 (PLoS ONE, 2009)

What was measured:
Details in all cases: both partners purified
[1] = biological target: T1, H-Ras (recombinant, guanine nucleotide-loaded) (UniProt P01112 1-189); assay: ITC; 300 µM RGS14(RBD1.RBD2) titrated into 20 µM H-Ras loaded with GPPNHP; 20°C; 20 mM HEPES pH 7.5, 150 mM NaCl, 1 mM MgCl2, 0.5 mM TCEP; single binding site model
T1 construct: H-Ras expressed from pPROEXHTb(H-Ras); Treated with calf intestinal phosphatase, EDTA, TEV protease and GPPNHP before gel filtration; used loaded with GPPNHP or with GDP (two assays); also called H-Ras(GPPNHP); H-Ras(GDP); source: E. coli BL21(DE3), purified (Ni-NTA, gel filtration)
T1 sequence (P01112 whole entry): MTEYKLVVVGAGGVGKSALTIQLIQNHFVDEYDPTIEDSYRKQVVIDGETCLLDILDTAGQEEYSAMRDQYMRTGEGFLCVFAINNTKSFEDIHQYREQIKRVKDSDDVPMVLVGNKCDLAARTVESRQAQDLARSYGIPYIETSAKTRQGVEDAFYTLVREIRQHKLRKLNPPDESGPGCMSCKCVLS

[2] = biological target: T1, H-Ras (recombinant, guanine …); assay: ITC; 300 µM RGS14(RBD1.RBD2) titrated into 20 µM H-Ras loaded with GDP; 20°C; 20 mM HEPES pH 7.5, 150 mM NaCl, 1 mM MgCl2, 0.5 mM TCEP; single binding site model
[3] = biological target: T1, H-Ras (recombinant, guanine …); assay: ITC; 300 µM RGS14(RBD1.RBD2) titrated into 20 µM H-Ras loaded with GPPNHP; 20°C; 20 mM HEPES pH 7.5, 150 mM NaCl, 1 mM MgCl2, 0.5 mM TCEP; single binding site model; remark: listed apart in the source
[4] = biological target: T1, H-Ras (recombinant, guanine …); assay: ITC; 300 µM RGS14(RBD1.RBD2) titrated into 20 µM H-Ras loaded with GDP; 20°C; 20 mM HEPES pH 7.5, 150 mM NaCl, 1 mM MgCl2, 0.5 mM TCEP; single binding site model; remark: listed apart in the source

B1: RGS14(RBD1.RBD2) (domain or fragment)
chain: PGKYCCVYLPDGTASLALARPGLTIRDMLAGICEKRGLSLPDIKVYLVGNEQALVLDQDCTVLADQEVRLENRITFELELTALERVVRISAKPTKRLQEALQPILEKHGLSPLEVVLHRPGEKQPLDLGKLVSSVAAQRLVLDTLPG
**Q.** Which Ka [1] does the source give for B1 here?
**A.** Its Ka is 101000 M⁻¹.

**Q.** And the dH [1]?
**A.** Its dH is -1.81 ± 0.04 kcal/M.

**Q.** What about the “stoichiometry N” value [1] of the same binder?
**A.** The value was 1.03 ± 0.02.

**Q.** And the Ka [2]?
**A.** Its Ka is 23500 M⁻¹.

**Q.** And the dH [2]?
**A.** Its dH is -7.1 ± 0.5 kcal/M.

**Q.** What about the “stoichiometry N” value [2] of the same binder?
**A.** The value was 1.05 ± 0.06.

**Q.** What about the Kd [3] of the same binder?
**A.** The Kd was roughly 10 µM.

**Q.** And the Kd [4]?
**A.** The Kd was greater than 200 µM.
